According to patent US20190135928A1 (Bristol-Myers Squibb, published 2019):

Key:
Test in all cases: cell-based or functional assay
human TL1A (in-house) [1] = target: T1, human TL1A (in-house) (human, UniProt O95150 57-251, limits assumed)
T1 sequence: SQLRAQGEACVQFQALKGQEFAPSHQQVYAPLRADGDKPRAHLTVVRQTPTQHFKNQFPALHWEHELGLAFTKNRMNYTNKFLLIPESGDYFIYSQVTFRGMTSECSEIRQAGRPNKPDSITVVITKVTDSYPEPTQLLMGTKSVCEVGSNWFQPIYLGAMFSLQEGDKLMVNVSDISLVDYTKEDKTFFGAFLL

human TL1A (in-house) [2] = target: T1, human TL1A (in-house); remark: listed apart in the source
human TL1A (in-house) [3] = target: T1, human TL1A (in-house); remark: listed apart in the source
human TL1A (in-house) [4] = target: T1, human TL1A (in-house); remark: listed apart in the source
[5] = target: T2, TL1A expressed on transfected CHO cells (Homo sapiens (Human), UniProt O95150 1-251)
T2 sequence: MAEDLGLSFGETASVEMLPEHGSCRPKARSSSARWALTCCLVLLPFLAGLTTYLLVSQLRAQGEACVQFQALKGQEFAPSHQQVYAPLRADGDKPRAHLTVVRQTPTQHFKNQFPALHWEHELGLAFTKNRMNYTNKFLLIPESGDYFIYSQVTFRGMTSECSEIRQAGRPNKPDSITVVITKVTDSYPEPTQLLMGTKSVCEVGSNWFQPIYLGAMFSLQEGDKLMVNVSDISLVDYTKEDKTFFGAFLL

human TL1A (in-house) [6] = target: T1, human TL1A (in-house); remark: listed apart in the source

EC50, TL1A + IL-12 + IL-18 driven IFNg (Hu NKcells)(2.45 mg/ml), Donor B, ELN ref 97305-070 (human TL1A (in-house) [1]): 0.253 nM
EC50, TL1A + IL-12 + IL-18 driven IFNg (Hu NKcells)(2.45 mg/ml), Donor B, ELN ref 97305-075 (human TL1A (in-house) [1]): 0.162 nM
EC50, TL1A + IL-12 + IL-18 driven IFNg (Hu Tcells) (4.8 mg/ml), Donor A, ELN ref 97305-082 (human TL1A (in-house) [2]): 0.162 nM
EC50, TL1A + IL-12 + IL-18 driven IFNg (Hu Tcells) (4.8 mg/ml), Donor A, ELN ref 99932-003797 (human TL1A (in-house) [2]): 0.303 nM
EC50, TL1A + IL-12 + IL-18 driven IFNg (Hu Tcells) (4.8 mg/ml), Donor A, ELN ref 99932-004083 (human TL1A (in-house) [2]): 0.27 nM
EC50, TL1A + IL-12 + IL-18 driven IFNg (Hu Tcells) (4.8 mg/ml), Donor A, ELN ref 99932-004084 (human TL1A (in-house) [2]): 0.316 nM
EC50, TL1A + IL-12 + IL-18 driven IFNg (Hu Tcells) (4.8 mg/ml), Donor A, ELN ref 99932-004439 (human TL1A (in-house) [2]): 0.262 nM
EC50, TL1A + IL-12 + IL-18 driven IFNg (Hu Tcells) (4.8 mg/ml), Donor A, ELN ref 99932-004774 (human TL1A (in-house) [2]): 0.177 nM
EC50, TL1A + IL-12 + IL-18 driven IFNg (Hu Tcells) (4.8 mg/ml), Donor A, ELN ref 99932-004955 (human TL1A (in-house) [2]): 0.193 nM
EC50, TL1A + IL-12 + IL-18 driven IFNg (Hu Tcells) (4.8 mg/ml), Donor A, ELN ref 99932-005751 (human TL1A (in-house) [2]): 0.216 nM
EC50, TL1A + IL-12 + IL-18 driven IFNg (Hu Tcells) (4.8 mg/ml), Donor B, ELN ref 97305-082 (human TL1A (in-house) [2]): 0.143 nM
EC50, TL1A + IL-12 + IL-18 driven IFNg (Hu Tcells) (4.8 mg/ml), Donor B, ELN ref 99932-003797 (human TL1A (in-house) [2]): 0.361 nM
EC50, TL1A + IL-12 + IL-18 driven IFNg (Hu Tcells) (4.8 mg/ml), Donor B, ELN ref 99932-004084 (human TL1A (in-house) [2]): 0.345 nM
EC50, TL1A + IL-12 + IL-18 driven IFNg (Hu Tcells) (4.8 mg/ml), Donor B, ELN ref 99932-004439 (human TL1A (in-house) [2]): 0.157 nM
EC50, TL1A + IL-12 + IL-18 driven IFNg (Hu Tcells) (4.8 mg/ml), Donor B, ELN ref 99932-004774 (human TL1A (in-house) [2]): 0.267 nM
EC50, TL1A + IL-12 + IL-18 driven IFNg (Hu Tcells) (4.8 mg/ml), Donor B, ELN ref 99932-004955 (human TL1A (in-house) [2]): 0.287 nM
EC50, TL1A + IL-12 + IL-18 driven IFNg (Hu Tcells) (4.8 mg/ml), Donor B, ELN ref 99932-005751 (human TL1A (in-house) [2]): 0.138 nM
EC50, TL1A + IL-12 + IL-18 driven IFNg (Hu PBMCs) (2.45 mg/ml), Donor A, ELN ref 97305-032 (human TL1A (in-house) [3]): 0.131 nM
EC50, TL1A + IL-12 + IL-18 driven IFNg (Hu PBMCs) (2.45 mg/ml), Donor A, ELN ref 97305-037 (human TL1A (in-house) [3]): 0.138 nM
EC50, TL1A + IL-12 + IL-18 driven IFNg (Hu PBMCs) (2.45 mg/ml), Donor A, ELN ref 97305-040 (human TL1A (in-house) [3]): 0.167 nM
EC50, TL1A + IL-12 + IL-18 driven IFNg (Hu PBMCs) (2.45 mg/ml), Donor A, ELN ref 97305-041 (human TL1A (in-house) [3]): 0.209 nM
EC50, TL1A + IL-12 + IL-18 driven IFNg (Hu PBMCs) (2.45 mg/ml), Donor A, ELN ref 97305-044 (human TL1A (in-house) [3]): 0.272 nM
EC50, TL1A + IL-12 + IL-18 driven IFNg (Hu PBMCs) (2.45 mg/ml), Donor A, ELN ref 97305-047 (human TL1A (in-house) [3]): 0.095 nM
EC50, TL1A + IL-12 + IL-18 driven IFNg (Hu PBMCs) (2.45 mg/ml), Donor A, ELN ref 97305-050 (human TL1A (in-house) [3]): 0.209 nM
EC50, TL1A + IL-12 + IL-18 driven IFNg (Hu PBMCs) (2.45 mg/ml), Donor A, ELN ref 97305-061 (human TL1A (in-house) [3]): 0.26 nM
EC50, TL1A + IL-12 + IL-18 driven IFNg (Hu PBMCs) (2.45 mg/ml), Donor A, ELN ref 99932-005481 (human TL1A (in-house) [3]): 0.301 nM
EC50, TL1A + IL-12 + IL-18 driven IFNg (Hu PBMCs) (2.45 mg/ml), Donor B, ELN ref 97305-032 (human TL1A (in-house) [3]): 0.197 nM
EC50, TL1A + IL-12 + IL-18 driven IFNg (Hu PBMCs) (2.45 mg/ml), Donor B, ELN ref 97305-037 (human TL1A (in-house) [3]): 0.289 nM
EC50, TL1A + IL-12 + IL-18 driven IFNg (Hu PBMCs) (2.45 mg/ml), Donor B, ELN ref 97305-040 (human TL1A (in-house) [3]): 0.146 nM
EC50, TL1A + IL-12 + IL-18 driven IFNg (Hu PBMCs) (2.45 mg/ml), Donor B, ELN ref 97305-041 (human TL1A (in-house) [3]): 0.283 nM
EC50, TL1A + IL-12 + IL-18 driven IFNg (Hu PBMCs) (2.45 mg/ml), Donor B, ELN ref 97305-044 (human TL1A (in-house) [3]): 0.211 nM
EC50, TL1A + IL-12 + IL-18 driven IFNg (Hu PBMCs) (2.45 mg/ml), Donor B, ELN ref 97305-047 (human TL1A (in-house) [3]): 0.185 nM
EC50, TL1A + IL-12 + IL-18 driven IFNg (Hu PBMCs) (2.45 mg/ml), Donor B, ELN ref 97305-050 (human TL1A (in-house) [3]): 0.163 nM
EC50, TL1A + IL-12 + IL-18 driven IFNg (Hu PBMCs) (2.45 mg/ml), Donor B, ELN ref 97305-061 (human TL1A (in-house) [3]): 0.152 nM
EC50, TL1A + IL-12 + IL-18 driven IFNg (Hu PBMCs) (2.45 mg/ml), Donor B, ELN ref 99932-005481 (human TL1A (in-house) [3]): 0.196 nM
EC50, TL1A + IL-12 + IL-18 driven IFNg (Hu PBMCs) (5.9 mg/ml), Donor A, ELN ref 99932-005481 (human TL1A (in-house) [4]): 0.295 nM
EC50, TL1A + IL-12 + IL-18 driven IFNg (Hu PBMCs) (5.9 mg/ml), Donor B, ELN ref 99932-005481 (human TL1A (in-house) [4]): 0.241 nM
EC50, TL1A-expressing CHO cells + IL-12 + IL-18 driven IFNg (Hu PBMCs)(2.45 mg/ml), Donor A, ELN ref 97305-034 [5]: 0.234 nM
EC50, TL1A-expressing CHO cells + IL-12 + IL-18 driven IFNg (Hu PBMCs)(2.45 mg/ml), Donor B, ELN ref 97305-034 [5]: 0.214 nM
EC50, TL1A + IL-12 + IL-18 driven IFNg (Hu Tcells) (5.9 mg/ml), Donor A, ELN ref 99932-004774 (human TL1A (in-house) [6]): 0.171 nM
EC50, TL1A + IL-12 + IL-18 driven IFNg (Hu Tcells) (5.9 mg/ml), Donor A, ELN ref 99932-004955 (human TL1A (in-house) [6]): 0.273 nM
EC50, TL1A + IL-12 + IL-18 driven IFNg (Hu Tcells) (5.9 mg/ml), Donor B, ELN ref 99932-004774 (human TL1A (in-house) [6]): 0.243 nM
EC50, TL1A + IL-12 + IL-18 driven IFNg (Hu Tcells) (5.9 mg/ml), Donor B, ELN ref 99932-004955 (human TL1A (in-house) [6]): 0.182 nM
B1: TL1A antibody 10A4.F7.2E8 huIgG4 (antibody, V domains shown)
VH: QLQLQESGPGLVKPSETLSLTCTVSGGSISSRSYYWGWIRQPPGKGLEWIGSIYYNGRTYYNPSLKSRVTISVDTSKNQFSLKLSSVTAADTAVYYCAREDYGDYGAFDIWGQGTMVTVSS
VL: AIQLTQSPSSLSASVGDRVTITCRASQGISSALAWYQQKPGKAPKLLIYDASSLESGVPSRFSGSGSGTDFTLTISSLQPEDFATYYCQQFNSYPLTFGGGTKVEIKR
